The text below walks through data of publication PMC6020293, “In Vitro Reconstitution of Functional Type III Protein Export and Insights into Flagellar Assembly” (mBio, 2018).

The data set concerns the molecule itself. Briefly: co-sedimentation; purified FlgE (4 µM) transported into inverted membrane vesicles with FlgD (0.6 or 4 µM), FliH2/FliI complex, FliJ and 5 mM ATP; after proteinase K and Triton X-100 centrifuged at 150,000 x g for 30 min; supernatant and precipitate immunoblotted; hook forms on the basal body inside the vesicle. On the technique in general: A western blot detects proteins with antibodies after separation by electrophoresis.

B1: FlgE (natural protein)
chain: MSFSQAVSGLNAAATNLDVIGNNIANSATYGFKSGTASFADMFAGSKVGLGVKVAGITQDFTDGTTTNTGRGLDVAISQNGFFRLVDSNGSVFYSRNGQFKLDENRNLVNMQGMQLTGYPATGTPPTIQQGANPAPITIPNTLMAAKSTTTASMQINLNSTDPVPSKTPFSVSDADSYNKKGTVTVYDSQGNAHDMNVYFVKTKDNEWAVYTHDSSDPAATAPTTASTTLKFNENGILESGGTVNITTGTINGATAATFSLSFLNSMQQNTGANNIVATNQNGYKPGDLVSYQINNDGTVVGNYSNEQEQVLGQIVLANFANNEGLASQGDNVWAATQASGVALLGTAGSGNFGKLTNGALEASNVDLSKELVNMIVAQRNYQSNAQTIKTQDQILNTLVNLR
notes: FlgE, flagellar hook protein, Salmonella; also called hook protein FlgE
As to B1, the binding result was “binds”.
